{"source": "paper PMC10303109", "about": "(Molecules, 2023)", "biological_target": "receptor-binding domain (RBD) of the wild-type SARS-CoV-2 spike protein (319-541 aa) (SARS-CoV-2, UniProt P0DTC2)", "assay": "cryo-EM structure", "details": "both partners purified", "data": [{"binder": "Fab domain of the antibody REGN10987 (Fab, V domains shown) VH: QVQLVESGGGVVQPGRSLRLSCAASGFTFSNYAMYWVRQAPGKGLEWVAVISYDGSNKYYADSVKGRFTISRDNSKNTLYLQMNSLRTEDTAVYYCASGSDYGDYLLVYWGQGTLVTVSS VL: QSALTQPASVSGSPGQSITISCTGTSSDVGGYNYVSWYQQHPGKAPKLMIYDVSKRPSGVSNRFSGSKSGNTASLTISGLQSEDEADYYCNSLTSISTWVFGGGTKLTVL", "values": [{"measurement": "binding result", "result": "binds"}]}]}
